Laboratory results taken from patent US20190276534A1 (Eli Lilly, published 2019).
One block for each binder: values may come before it.

Experiments:
[1] = molecular target: T1, human Tim-3-Fc (R&D Systems) (human, UniProt Q8TDQ0 22-130, biotinylated in the phosphatidylserine assay; ruthenylated (sulfo-tag NHS-ester) in the galectin-9 assay); assay: flow cytometry, blocking of biotinylated hTIM-3-Fc binding to phosphatidylserine on camptothecin-treated DO11.10 cells
T1 construct: Bought protein; Supplier is not repeated for the CEACAM1 assay; also called hTIM-3-Fc; hTIM-3-Fc Biotin; not shown: Fc part of the bought fusion protein
T1 sequence: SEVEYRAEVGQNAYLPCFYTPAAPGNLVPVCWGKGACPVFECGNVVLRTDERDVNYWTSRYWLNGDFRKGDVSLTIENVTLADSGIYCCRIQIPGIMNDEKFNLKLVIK

[2] = molecular target: T1, human Tim-3-Fc (R&D Systems); assay: MSD plate competition assay, ruthenylated hTim-3-Fc binding to coated galectin-9-biotin; competitor galectin-9
[3] = molecular target: T2, cell surface human Tim-3 on Tim-3 DO11.10 cells (human, UniProt Q8TDQ0 22-301); assay: flow cytometry, A488-labelled antibody on Tim-3 DO11.10 cells
T2 construct: whole, on cells; Also used as the target for the mixed lymphocyte reaction rows, where Tim-3 is on primary human cells; also called Tim-3 D011.10 cells
T2 sequence (looked up): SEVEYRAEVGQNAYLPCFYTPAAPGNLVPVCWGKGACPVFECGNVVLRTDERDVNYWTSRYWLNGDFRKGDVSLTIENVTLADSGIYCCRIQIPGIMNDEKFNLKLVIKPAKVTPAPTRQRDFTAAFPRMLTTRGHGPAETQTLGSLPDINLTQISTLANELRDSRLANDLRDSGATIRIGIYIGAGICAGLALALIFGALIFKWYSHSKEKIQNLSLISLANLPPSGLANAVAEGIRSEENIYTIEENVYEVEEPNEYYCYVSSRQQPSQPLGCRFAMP

[4] = molecular target: T3, human Tim-3-IgV-Fc single arm antigen (SAG) (human); assay: SPR Biacore T100, antibody captured on Human Fab Binder, Tim-3 SAG as analyte, 1:1 Langmuir with mass transport
T3 construct: Construct is only named; its build is not described; also called Tim-3 SAG; not shown: Fc part; second Fc arm of the single arm antigen; not described
T3 sequence (Q8TDQ0 whole entry, looked up): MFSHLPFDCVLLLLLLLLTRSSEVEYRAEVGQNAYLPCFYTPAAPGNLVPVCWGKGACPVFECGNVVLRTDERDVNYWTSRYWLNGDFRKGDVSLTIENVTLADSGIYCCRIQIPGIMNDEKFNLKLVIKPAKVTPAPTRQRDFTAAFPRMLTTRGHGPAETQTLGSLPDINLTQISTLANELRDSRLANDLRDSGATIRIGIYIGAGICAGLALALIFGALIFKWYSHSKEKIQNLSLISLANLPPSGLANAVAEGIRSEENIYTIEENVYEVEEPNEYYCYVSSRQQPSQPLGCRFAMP

[5] = molecular target: T1, human Tim-3-Fc (R&D Systems); assay: ELISA, human Tim-3-Fc coated, anti-human IgG F(ab')2-HRP detection
[6] = molecular target: T4, hTim-3-IgV-FLAG (human, UniProt Q8TDQ0 22-130, density indicating glycosylation at Asn99); assay: SPR Biacore T200, Fab captured, hTim-3-IgV-FLAG as analyte, HBS-EP, 25 C, 1:1 binding
T4 construct: Purified from 293HEK supernatant; also called hTim-3-FLAG; human Tim-3 IgV domain; not shown: FLAG tag
T4 sequence: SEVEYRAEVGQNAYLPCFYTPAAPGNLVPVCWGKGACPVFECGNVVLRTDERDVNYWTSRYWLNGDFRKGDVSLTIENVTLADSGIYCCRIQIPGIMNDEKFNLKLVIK

[7] = molecular target: human PD-1 on CHO cells (human, UniProt Q15116 25-288); assay: flow cytometry, CHO cells with human PD-1 incubated with antibody 100 nM, then PD-L2-FITC; competitor PD-L2-FITC
human PD-1 on CHO cells, sequence (Q15116 25-288 limits assumed): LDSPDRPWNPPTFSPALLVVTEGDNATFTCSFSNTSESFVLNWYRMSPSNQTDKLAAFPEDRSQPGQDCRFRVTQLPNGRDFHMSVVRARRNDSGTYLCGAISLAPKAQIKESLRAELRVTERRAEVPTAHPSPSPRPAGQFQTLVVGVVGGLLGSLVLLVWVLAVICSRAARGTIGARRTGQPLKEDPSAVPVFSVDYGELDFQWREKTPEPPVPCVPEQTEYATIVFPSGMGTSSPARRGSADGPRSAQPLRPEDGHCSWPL

- IC50 [1]: 0.32 nM
- IC50 [2]: 5.6 nM
- EC50 [3]: 0.09 nM
- Kd [4]: 0.398 nM
- koff [4]: 0.000927 s⁻¹
- kon [4]: 2.33e+06 M⁻¹ s⁻¹
- EC50 [5]: 0.0207 nM
B1: Antibody A (anti-Tim-3 Antibody) (antibody, human IgG1, kappa, V domains shown)
VH: EVQLLESGGGLVQPGGSLRLSCAASGFTFSSYYMSWVRQAPGKGLEWVSAISGSGGSTYYADSVKGRFTISRDNSKNTLYLQMNSLRAEDTAVYYCARYARTAFDLWGQGTLVTVSS
VL: DIVMTQSPSSLSASVGDGVTITCQASQDIYNYLNWYQQKPGKAPKLLIYAASSLQSGVPSRFSGSGSGTDFTLTISSLQPEDFATYYCQQANSFPPTFGQGTKLEIKR
notes: Full IgG; also called anti-human Tim-3

- Kd [6]: 7.92 nM
- koff [6]: 0.00286 s⁻¹
- kon [6]: 362000 M⁻¹ s⁻¹
B2: Antibody A-Fab (Fab, V domains shown)
VH: EVQLLESGGGLVQPGGSLRLSCAASGFTFSSYYMSWVRQAPGKGLEWVSAISGSGGSTYYADSVKGRFTISRDNSKNTLYLQMNSLRAEDTAVYYCARYARTAFDLWGQGTLVTVSS
VL: DIVMTQSPSSLSASVGDGVTITCQASQDIYNYLNWYQQKPGKAPKLLIYAASSLQSGVPSRFSGSGSGTDFTLTISSLQPEDFATYYCQQANSFPPTFGQGTKLEIKR
notes: Made by clipping Antibody A with immobilized papain; the Fc part was not present in the assay; also called Fab for Antibody A

- MFI (PD-L2-FITC) in presence of the antibody [7]: 24700
B3: Antibody D in IgG1 format (antibody, V domains shown)
VH: QVQLVQSGAEVKKPGSSVKVSCKASGGTFSSYAISWVRQAPGQGLEWMGLIIPMFDTAGYAQKFQGRVAITVDESTSTAYMELSSLRSEDTAVYYCARAEHSSTGTFDYWGQGTLVTVSS
VL: DIQMTQSPSSVSASVGDRVTITCRASQGISSWLAWYQQKPGKAPKLLISAASSLQSGVPSRFSGSGSGTDFTLTISSLQPEDFATYYCQQANHLPFTFGGGTKVEIK
notes: IgG1 format, expressed in yeast; also called Antibody D, in IgG1 format and expressed in yeast
